# Reference: patent US20240018502A1
# Biological target: plasma purified human complement protein C3 (human) (UniProt P01024)
# Assay: cell-based or functional assay
# Sequence of plasma purified human complement protein C3 (human) (P01024 23-667, chain 1 of 2): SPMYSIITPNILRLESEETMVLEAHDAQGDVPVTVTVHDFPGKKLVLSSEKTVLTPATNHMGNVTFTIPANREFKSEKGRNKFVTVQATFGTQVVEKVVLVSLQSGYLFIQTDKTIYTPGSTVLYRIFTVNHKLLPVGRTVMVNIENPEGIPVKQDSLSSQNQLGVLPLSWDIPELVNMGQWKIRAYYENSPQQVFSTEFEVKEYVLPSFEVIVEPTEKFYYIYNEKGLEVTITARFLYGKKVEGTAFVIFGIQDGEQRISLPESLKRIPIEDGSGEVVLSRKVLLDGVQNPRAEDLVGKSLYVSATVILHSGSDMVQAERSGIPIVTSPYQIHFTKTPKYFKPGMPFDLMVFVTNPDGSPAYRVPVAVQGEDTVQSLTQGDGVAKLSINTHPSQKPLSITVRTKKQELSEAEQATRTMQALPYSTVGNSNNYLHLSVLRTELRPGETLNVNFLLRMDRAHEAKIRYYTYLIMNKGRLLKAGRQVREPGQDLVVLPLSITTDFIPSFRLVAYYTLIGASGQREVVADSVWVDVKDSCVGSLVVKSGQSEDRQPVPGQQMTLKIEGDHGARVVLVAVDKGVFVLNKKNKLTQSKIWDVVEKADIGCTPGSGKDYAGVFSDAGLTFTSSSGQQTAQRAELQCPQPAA
# Sequence of plasma purified human complement protein C3 (human) (P01024 672-1663, chain 2 of 2): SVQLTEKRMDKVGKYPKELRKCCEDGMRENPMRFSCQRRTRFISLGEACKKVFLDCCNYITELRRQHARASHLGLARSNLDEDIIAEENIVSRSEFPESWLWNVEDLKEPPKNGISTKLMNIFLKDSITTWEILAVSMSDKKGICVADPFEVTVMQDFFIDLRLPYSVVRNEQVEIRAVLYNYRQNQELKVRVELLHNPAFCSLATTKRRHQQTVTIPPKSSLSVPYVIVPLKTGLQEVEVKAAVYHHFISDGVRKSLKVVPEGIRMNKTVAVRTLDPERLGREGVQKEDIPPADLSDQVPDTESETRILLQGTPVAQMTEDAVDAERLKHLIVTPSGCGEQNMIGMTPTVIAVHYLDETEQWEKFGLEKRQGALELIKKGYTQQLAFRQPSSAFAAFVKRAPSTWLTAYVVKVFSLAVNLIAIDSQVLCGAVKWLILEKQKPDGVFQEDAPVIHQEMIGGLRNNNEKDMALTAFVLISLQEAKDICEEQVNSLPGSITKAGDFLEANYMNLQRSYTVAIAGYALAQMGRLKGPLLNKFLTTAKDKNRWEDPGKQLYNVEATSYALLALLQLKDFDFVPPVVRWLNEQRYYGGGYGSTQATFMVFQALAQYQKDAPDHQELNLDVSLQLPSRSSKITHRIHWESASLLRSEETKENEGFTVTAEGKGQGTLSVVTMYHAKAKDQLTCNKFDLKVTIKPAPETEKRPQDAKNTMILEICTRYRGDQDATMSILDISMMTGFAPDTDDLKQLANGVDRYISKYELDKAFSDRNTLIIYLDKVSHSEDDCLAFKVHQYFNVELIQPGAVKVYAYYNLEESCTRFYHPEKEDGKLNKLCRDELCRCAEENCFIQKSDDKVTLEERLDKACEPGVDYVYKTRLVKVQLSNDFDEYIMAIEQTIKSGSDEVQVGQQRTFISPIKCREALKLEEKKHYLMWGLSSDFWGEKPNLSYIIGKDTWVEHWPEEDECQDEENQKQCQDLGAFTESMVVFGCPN
Binder,EC50 of hC3 cleavage,EC50 hC3 cleavage
MTSP-1 protease domain Q38H/I41S/D60bT/F60eS/Y60gW/D96K/F97G/ins97aV/T98P/F99L/M117K/C122S/G151H/Q175L/Q192D (enzyme) VVGGTDADEGEWPWQVSLHALGHGHSCGASLISPNWLVSAAHCYIDTRGSRWSDPTQWTAFLGLHDQSQRSAPGVQERRLKRIISHPFFNKGVPLDYDIALLELEKPAEYSSKVRPISLPDASHVFPAGKAIWVTGWGHTQYGGTHALILQKGEIRVINQTTCENLLPQLITPRMMCVGFLSGGVDSCDGDSGGPLSSVEADGRIFQAGVVSWGDGCAQRNKPGVYTRLPLFRDWIKENTGV,–,4.75 nM
MTSP-1 protease domain Q38H/I41S/D60bT/F60eS/Y60gW/D96K/F97G/ins97aV/T98P/F99L/C122S/T150S/G151H/Q175L/Q192D/Q209L (enzyme) VVGGTDADEGEWPWQVSLHALGHGHSCGASLISPNWLVSAAHCYIDTRGSRWSDPTQWTAFLGLHDQSQRSAPGVQERRLKRIISHPFFNKGVPLDYDIALLELEKPAEYSSMVRPISLPDASHVFPAGKAIWVTGWGHTQYGGSHALILQKGEIRVINQTTCENLLPQLITPRMMCVGFLSGGVDSCDGDSGGPLSSVEADGRIFLAGVVSWGDGCAQRNKPGVYTRLPLFRDWIKENTGV,–,2.88 nM
MTSP-1 protease domain Q38Y/I41S/D60bT/F60eR/Y60gW/D96M/F97N/T98G/F99L/C122S/G151N/Q175L/Q192D (enzyme) VVGGTDADEGEWPWQVSLHALGYGHSCGASLISPNWLVSAAHCYIDTRGRRWSDPTQWTAFLGLHDQSQRSAPGVQERRLKRIISHPFFNMNGLDYDIALLELEKPAEYSSMVRPISLPDASHVFPAGKAIWVTGWGHTQYGGTNALILQKGEIRVINQTTCENLLPQLITPRMMCVGFLSGGVDSCDGDSGGPLSSVEADGRIFQAGVVSWGDGCAQRNKPGVYTRLPLFRDWIKENTGV,–,5.12 nM
MTSP-1 protease domain Q38Y/I41S/D60bT/Y60gW/D96M/F97N/T98G/F99L/C122S/G151N/Q175L/Q192D (enzyme) VVGGTDADEGEWPWQVSLHALGYGHSCGASLISPNWLVSAAHCYIDTRGFRWSDPTQWTAFLGLHDQSQRSAPGVQERRLKRIISHPFFNMNGLDYDIALLELEKPAEYSSMVRPISLPDASHVFPAGKAIWVTGWGHTQYGGTNALILQKGEIRVINQTTCENLLPQLITPRMMCVGFLSGGVDSCDGDSGGPLSSVEADGRIFQAGVVSWGDGCAQRNKPGVYTRLPLFRDWIKENTGV,–,3.08 nM
MTSP-1 protease domain Q38Y/I41S/D60bT/F60eR/Y60gW/D96M/F97N/F99L/C122S/G151N/Q175L/Q192D (enzyme) VVGGTDADEGEWPWQVSLHALGYGHSCGASLISPNWLVSAAHCYIDTRGRRWSDPTQWTAFLGLHDQSQRSAPGVQERRLKRIISHPFFNMNTLDYDIALLELEKPAEYSSMVRPISLPDASHVFPAGKAIWVTGWGHTQYGGTNALILQKGEIRVINQTTCENLLPQLITPRMMCVGFLSGGVDSCDGDSGGPLSSVEADGRIFQAGVVSWGDGCAQRNKPGVYTRLPLFRDWIKENTGV,–,10.8 nM
MTSP-1 protease domain Q38Y/I41S/D60bT/F60eR/Y60gW/D96M/T98G/F99L/C122S/G151N/Q175L/Q192D (enzyme) VVGGTDADEGEWPWQVSLHALGYGHSCGASLISPNWLVSAAHCYIDTRGRRWSDPTQWTAFLGLHDQSQRSAPGVQERRLKRIISHPFFNMFGLDYDIALLELEKPAEYSSMVRPISLPDASHVFPAGKAIWVTGWGHTQYGGTNALILQKGEIRVINQTTCENLLPQLITPRMMCVGFLSGGVDSCDGDSGGPLSSVEADGRIFQAGVVSWGDGCAQRNKPGVYTRLPLFRDWIKENTGV,–,3.27 nM
MTSP-1 protease domain Q38E/I41S/D60bV/F60eK/Y60gW/D96M/F97N/T98G/F99L/C122S/G151N/Q175L/Q192D (enzyme) VVGGTDADEGEWPWQVSLHALGEGHSCGASLISPNWLVSAAHCYIDVRGKRWSDPTQWTAFLGLHDQSQRSAPGVQERRLKRIISHPFFNMNGLDYDIALLELEKPAEYSSMVRPISLPDASHVFPAGKAIWVTGWGHTQYGGTNALILQKGEIRVINQTTCENLLPQLITPRMMCVGFLSGGVDSCDGDSGGPLSSVEADGRIFQAGVVSWGDGCAQRNKPGVYTRLPLFRDWIKENTGV,–,19.1 nM
MTSP-1 protease domain Q38Y/D60bT/F60eR/Y60gW/D96M/F97N/T98G/F99L/C122S/G151N/Q175L/Q192D (enzyme) VVGGTDADEGEWPWQVSLHALGYGHICGASLISPNWLVSAAHCYIDTRGRRWSDPTQWTAFLGLHDQSQRSAPGVQERRLKRIISHPFFNMNGLDYDIALLELEKPAEYSSMVRPISLPDASHVFPAGKAIWVTGWGHTQYGGTNALILQKGEIRVINQTTCENLLPQLITPRMMCVGFLSGGVDSCDGDSGGPLSSVEADGRIFQAGVVSWGDGCAQRNKPGVYTRLPLFRDWIKENTGV,–,47.7 nM
MTSP-1 protease domain I41S/D60bT/F60eR/Y60gW/D96M/F97N/T98G/F99L/C122S/G151N/Q175L/Q192D (enzyme) VVGGTDADEGEWPWQVSLHALGQGHSCGASLISPNWLVSAAHCYIDTRGRRWSDPTQWTAFLGLHDQSQRSAPGVQERRLKRIISHPFFNMNGLDYDIALLELEKPAEYSSMVRPISLPDASHVFPAGKAIWVTGWGHTQYGGTNALILQKGEIRVINQTTCENLLPQLITPRMMCVGFLSGGVDSCDGDSGGPLSSVEADGRIFQAGVVSWGDGCAQRNKPGVYTRLPLFRDWIKENTGV,–,9.47 nM
MTSP-1 protease domain Q38Y/I41S/D60bT/F60eR/D96M/F97N/T98G/F99L/C122S/G151N/Q175L/Q192D (enzyme) VVGGTDADEGEWPWQVSLHALGYGHSCGASLISPNWLVSAAHCYIDTRGRRYSDPTQWTAFLGLHDQSQRSAPGVQERRLKRIISHPFFNMNGLDYDIALLELEKPAEYSSMVRPISLPDASHVFPAGKAIWVTGWGHTQYGGTNALILQKGEIRVINQTTCENLLPQLITPRMMCVGFLSGGVDSCDGDSGGPLSSVEADGRIFQAGVVSWGDGCAQRNKPGVYTRLPLFRDWIKENTGV,–,16.4 nM

# Further lines, results first:
EC50 of hC3 cleavage,EC50 hC3 cleavage,Binder
6.86 nM,–,MTSP-1 Q38H/I41S/D60bT/F60eS/Y60gW/D96K/ins97aV/F97G/T98P/F99L/C122S/G151H/Q175L/Q192D (enzyme) VVGGTDADEGEWPWQVSLHALGHGHSCGASLISPNWLVSAAHCYIDTRGSRWSDPTQWTAFLGLHDQSQRSAPGVQERRLKRIISHPFFNKGVPLDYDIALLELEKPAEYSSMVRPISLPDASHVFPAGKAIWVTGWGHTQYGGTHALILQKGEIRVINQTTCENLLPQLITPRMMCVGFLSGGVDSCDGDSGGPLSSVEADGRIFQAGVVSWGDGCAQRNKPGVYTRLPLFRDWIKENTGV
2.85 nM,–,MTSP-1 Q38H/I41S/D60bT/F60eS/Y60gW/D96V/F97G/ins97aV/T98P/F99L/C122S/G151H/Q175L/Q192D (enzyme) VVGGTDADEGEWPWQVSLHALGHGHSCGASLISPNWLVSAAHCYIDTRGSRWSDPTQWTAFLGLHDQSQRSAPGVQERRLKRIISHPFFNVGVPLDYDIALLELEKPAEYSSMVRPISLPDASHVFPAGKAIWVTGWGHTQYGGTHALILQKGEIRVINQTTCENLLPQLITPRMMCVGFLSGGVDSCDGDSGGPLSSVEADGRIFQAGVVSWGDGCAQRNKPGVYTRLPLFRDWIKENTGV
–,5.49 nM,MTSP-1 protease domain L36Q/Q38H/I41S/D60bT/F60eS/Y60gW/D96K/F97G/ins97aV/T98P/F99L/C122S/G151H/Q175L/Q192D (enzyme) VVGGTDADEGEWPWQVSLHAQGHGHSCGASLISPNWLVSAAHCYIDTRGSRWSDPTQWTAFLGLHDQSQRSAPGVQERRLKRIISHPFFNKGVPLDYDIALLELEKPAEYSSMVRPISLPDASHVFPAGKAIWVTGWGHTQYGGTHALILQKGEIRVINQTTCENLLPQLITPRMMCVGFLSGGVDSCDGDSGGPLSSVEADGRIFQAGVVSWGDGCAQRNKPGVYTRLPLFRDWIKENTGV
–,5.25 nM,MTSP-1 protease domain Q38Y/I41S/D60bV/F60eR/Y60gF/D96M/F97N/T98G/F99L/C122S/G151N/Q175L/Q192D (enzyme) VVGGTDADEGEWPWQVSLHALGYGHSCGASLISPNWLVSAAHCYIDVRGRRFSDPTQWTAFLGLHDQSQRSAPGVQERRLKRIISHPFFNMNGLDYDIALLELEKPAEYSSMVRPISLPDASHVFPAGKAIWVTGWGHTQYGGTNALILQKGEIRVINQTTCENLLPQLITPRMMCVGFLSGGVDSCDGDSGGPLSSVEADGRIFQAGVVSWGDGCAQRNKPGVYTRLPLFRDWIKENTGV
–,10.4 nM,MTSP-1 protease domain Q38Y/I41S/F60eR/Y60gW/D96M/F97N/T98G/F99L/C122S/G151N/Q175L/Q192D (enzyme) VVGGTDADEGEWPWQVSLHALGYGHSCGASLISPNWLVSAAHCYIDDRGRRWSDPTQWTAFLGLHDQSQRSAPGVQERRLKRIISHPFFNMNGLDYDIALLELEKPAEYSSMVRPISLPDASHVFPAGKAIWVTGWGHTQYGGTNALILQKGEIRVINQTTCENLLPQLITPRMMCVGFLSGGVDSCDGDSGGPLSSVEADGRIFQAGVVSWGDGCAQRNKPGVYTRLPLFRDWIKENTGV
–,13.3 nM,MTSP-1 protease domain Q38H/I41S/D60bT/F60eK/D96V/F97N/T98G/F99L/C122S/G151N/Q175L/Q192D (enzyme) VVGGTDADEGEWPWQVSLHALGHGHSCGASLISPNWLVSAAHCYIDTRGKRYSDPTQWTAFLGLHDQSQRSAPGVQERRLKRIISHPFFNVNGLDYDIALLELEKPAEYSSMVRPISLPDASHVFPAGKAIWVTGWGHTQYGGTNALILQKGEIRVINQTTCENLLPQLITPRMMCVGFLSGGVDSCDGDSGGPLSSVEADGRIFQAGVVSWGDGCAQRNKPGVYTRLPLFRDWIKENTGV
–,56.7 nM,MTSP-1 protease domain Q38Y/I41S/D60bT/F60eR/Y60gW/D96M/F97N/T98G/F99L/C122S/G151N/Q192D (enzyme) VVGGTDADEGEWPWQVSLHALGYGHSCGASLISPNWLVSAAHCYIDTRGRRWSDPTQWTAFLGLHDQSQRSAPGVQERRLKRIISHPFFNMNGLDYDIALLELEKPAEYSSMVRPISLPDASHVFPAGKAIWVTGWGHTQYGGTNALILQKGEIRVINQTTCENLLPQQITPRMMCVGFLSGGVDSCDGDSGGPLSSVEADGRIFQAGVVSWGDGCAQRNKPGVYTRLPLFRDWIKENTGV
–,33.6 nM,MTSP-1 protease domain Q38Y/I41S/D60bT/F60eR/Y60gW/D96M/F97N/T98G/C122S/G151N/Q175L/Q192D (enzyme) VVGGTDADEGEWPWQVSLHALGYGHSCGASLISPNWLVSAAHCYIDTRGRRWSDPTQWTAFLGLHDQSQRSAPGVQERRLKRIISHPFFNMNGFDYDIALLELEKPAEYSSMVRPISLPDASHVFPAGKAIWVTGWGHTQYGGTNALILQKGEIRVINQTTCENLLPQLITPRMMCVGFLSGGVDSCDGDSGGPLSSVEADGRIFQAGVVSWGDGCAQRNKPGVYTRLPLFRDWIKENTGV
–,15.9 nM,MTSP-1 protease domain Q38Y/I41S/D60bT/F60eR/Y60gW/F97N/T98G/F99L/C122S/G151N/Q175L/Q192D (enzyme) VVGGTDADEGEWPWQVSLHALGYGHSCGASLISPNWLVSAAHCYIDTRGRRWSDPTQWTAFLGLHDQSQRSAPGVQERRLKRIISHPFFNDNGLDYDIALLELEKPAEYSSMVRPISLPDASHVFPAGKAIWVTGWGHTQYGGTNALILQKGEIRVINQTTCENLLPQLITPRMMCVGFLSGGVDSCDGDSGGPLSSVEADGRIFQAGVVSWGDGCAQRNKPGVYTRLPLFRDWIKENTGV
–,1.08 nM,MTSP-1 protease domain Q38Y/I41S/D60bT/F60eR/Y60gW/D96M/F97N/T98G/F99L/C122S/G151N/Q175L (enzyme) VVGGTDADEGEWPWQVSLHALGYGHSCGASLISPNWLVSAAHCYIDTRGRRWSDPTQWTAFLGLHDQSQRSAPGVQERRLKRIISHPFFNMNGLDYDIALLELEKPAEYSSMVRPISLPDASHVFPAGKAIWVTGWGHTQYGGTNALILQKGEIRVINQTTCENLLPQLITPRMMCVGFLSGGVDSCQGDSGGPLSSVEADGRIFQAGVVSWGDGCAQRNKPGVYTRLPLFRDWIKENTGV
–,35.7 nM,MTSP-1 protease domain Q38H/I41S/F60eT/Y60gW/D96M/F97N/T98G/F99L/C122S/G151N/Q175L/Q192D (enzyme) VVGGTDADEGEWPWQVSLHALGHGHSCGASLISPNWLVSAAHCYIDDRGTRWSDPTQWTAFLGLHDQSQRSAPGVQERRLKRIISHPFFNMNGLDYDIALLELEKPAEYSSMVRPISLPDASHVFPAGKAIWVTGWGHTQYGGTNALILQKGEIRVINQTTCENLLPQLITPRMMCVGFLSGGVDSCDGDSGGPLSSVEADGRIFQAGVVSWGDGCAQRNKPGVYTRLPLFRDWIKENTGV
